What was measured:
[1] = biological target: human IGF1R-luciferase fusion protein (IGF1R-Luc) (human); assay: bridge assay: immobilized IGF1R-PGA14tag, antibody at 3125 ng/ml, IGF1R-Luc
[2] = biological target: human IGF1R-luciferase fusion protein (IGF1R-Luc) (human); assay: bridge assay: immobilized IGF1R-PGA14tag, antibody at 12500 ng/ml, IGF1R-Luc
[3] = biological target: human IGF1R-luciferase fusion protein (IGF1R-Luc) (human); assay: bridge assay: immobilized IGF1R-PGA14tag, antibody at 0.2 ng/ml, IGF1R-Luc
[4] = biological target: human IGF1R-luciferase fusion protein (IGF1R-Luc) (human); assay: bridge assay: immobilized IGF1R-PGA14tag, antibody, IGF1R-Luc
[5] = biological target: human IGF1R-luciferase fusion protein (IGF1R-Luc) (human); assay: bridge assay: immobilized IGF1R-PGA14tag, antibody at 50000 ng/ml, IGF1R-Luc
[6] = biological target: human IGF1R-luciferase fusion protein (IGF1R-Luc) (human); assay: bridge assay: immobilized IGF1R-PGA14tag, antibody at 0.05 ng/ml, IGF1R-Luc
[7] = biological target: human IGF1R-luciferase fusion protein (IGF1R-Luc) (human); assay: bridge assay: immobilized IGF1R-PGA14tag, antibody at 781 ng/ml, IGF1R-Luc
[8] = biological target: human IGF1R-luciferase fusion protein (IGF1R-Luc) (human); assay: bridge assay: immobilized IGF1R-PGA14tag, antibody at 0.8 ng/ml, IGF1R-Luc
[9] = biological target: human IGF1R-luciferase fusion protein (IGF1R-Luc) (human); assay: bridge assay: immobilized IGF1R-PGA14tag, antibody at 195 ng/ml, IGF1R-Luc
[10] = biological target: human IGF1R-luciferase fusion protein (IGF1R-Luc) (human); assay: bridge assay: immobilized IGF1R-PGA14tag, antibody at 3 ng/ml, IGF1R-Luc
[11] = biological target: human IGF1R-luciferase fusion protein (IGF1R-Luc) (human); assay: bridge assay: immobilized IGF1R-PGA14tag, antibody at 49 ng/ml, IGF1R-Luc
[12] = biological target: human IGF1R-luciferase fusion protein (IGF1R-Luc) (human); assay: bridge assay: immobilized IGF1R-PGA14tag, antibody at 12 ng/ml, IGF1R-Luc

human IGF1R-luciferase fusion protein (IGF1R-Luc) (human), sequence (chain, as listed by the source limits assumed): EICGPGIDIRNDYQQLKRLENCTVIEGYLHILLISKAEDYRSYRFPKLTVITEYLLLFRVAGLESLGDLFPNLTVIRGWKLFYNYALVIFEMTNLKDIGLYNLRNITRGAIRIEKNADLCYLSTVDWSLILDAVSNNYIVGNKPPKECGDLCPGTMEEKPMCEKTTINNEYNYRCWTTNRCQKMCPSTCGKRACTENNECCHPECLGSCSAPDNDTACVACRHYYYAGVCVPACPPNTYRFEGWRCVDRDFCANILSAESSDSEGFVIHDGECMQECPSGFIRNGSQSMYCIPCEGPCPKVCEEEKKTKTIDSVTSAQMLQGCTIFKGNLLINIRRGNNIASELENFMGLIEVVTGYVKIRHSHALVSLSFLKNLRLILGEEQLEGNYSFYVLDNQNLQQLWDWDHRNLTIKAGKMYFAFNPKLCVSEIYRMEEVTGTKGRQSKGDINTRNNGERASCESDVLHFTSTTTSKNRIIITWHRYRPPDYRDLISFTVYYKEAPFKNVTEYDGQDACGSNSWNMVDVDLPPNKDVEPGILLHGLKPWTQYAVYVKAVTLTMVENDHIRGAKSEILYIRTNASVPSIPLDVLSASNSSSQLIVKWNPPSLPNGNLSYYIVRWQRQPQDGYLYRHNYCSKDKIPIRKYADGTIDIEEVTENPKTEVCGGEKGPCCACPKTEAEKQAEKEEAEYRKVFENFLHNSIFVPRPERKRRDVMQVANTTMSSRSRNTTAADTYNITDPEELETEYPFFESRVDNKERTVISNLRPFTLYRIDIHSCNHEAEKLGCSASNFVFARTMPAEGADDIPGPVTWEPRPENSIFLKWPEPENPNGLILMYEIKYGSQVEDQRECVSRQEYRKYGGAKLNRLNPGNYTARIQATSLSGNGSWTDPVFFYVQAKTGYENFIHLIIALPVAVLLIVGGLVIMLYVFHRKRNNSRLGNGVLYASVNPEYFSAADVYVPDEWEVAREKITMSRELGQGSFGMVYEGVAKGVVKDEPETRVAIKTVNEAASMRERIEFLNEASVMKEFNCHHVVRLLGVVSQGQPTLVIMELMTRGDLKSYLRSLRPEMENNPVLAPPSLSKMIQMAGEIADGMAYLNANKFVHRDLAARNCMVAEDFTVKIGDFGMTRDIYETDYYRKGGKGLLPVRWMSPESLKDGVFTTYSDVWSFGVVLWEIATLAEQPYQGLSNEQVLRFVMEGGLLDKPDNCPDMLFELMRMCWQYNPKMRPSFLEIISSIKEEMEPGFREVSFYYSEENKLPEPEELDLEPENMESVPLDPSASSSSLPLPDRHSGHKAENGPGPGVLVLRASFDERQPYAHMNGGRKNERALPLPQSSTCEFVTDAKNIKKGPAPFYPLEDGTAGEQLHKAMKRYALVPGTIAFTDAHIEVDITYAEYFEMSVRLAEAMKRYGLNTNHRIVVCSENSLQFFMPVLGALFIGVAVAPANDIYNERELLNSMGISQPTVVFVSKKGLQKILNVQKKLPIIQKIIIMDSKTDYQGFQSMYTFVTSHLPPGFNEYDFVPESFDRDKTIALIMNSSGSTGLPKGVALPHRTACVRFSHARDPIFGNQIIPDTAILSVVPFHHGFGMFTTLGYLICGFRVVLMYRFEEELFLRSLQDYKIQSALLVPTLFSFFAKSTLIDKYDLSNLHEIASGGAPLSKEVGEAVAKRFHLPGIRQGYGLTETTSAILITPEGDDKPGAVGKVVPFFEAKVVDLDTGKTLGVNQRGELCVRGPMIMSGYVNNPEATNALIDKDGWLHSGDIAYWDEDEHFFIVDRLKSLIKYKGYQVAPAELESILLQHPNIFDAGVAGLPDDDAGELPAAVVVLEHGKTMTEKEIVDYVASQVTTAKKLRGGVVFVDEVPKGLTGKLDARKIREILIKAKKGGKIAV

Monoclonal antibody to the extracellular domain of IGF1R (anti-IGF1R clone#24-75, Millipore, USA)
RLU bound [1]: 627000 RLU | RLU bound [2]: 767000 RLU | RLU bound [3]: 5900 RLU | detection limit [4]: 0.2 ng/mL | RLU bound [5]: 805000 RLU | RLU bound [6]: 5370 RLU | RLU bound [7]: 476000 RLU | RLU bound [8]: 8860 RLU | RLU bound [9]: 235000 RLU | RLU bound [10]: 11800 RLU | RLU bound [11]: 88900 RLU | RLU bound [12]: 27000 RLU

Reference: US20150301040A1
